Consider two substances from PMC8677947.

The term Kd denotes a measure of binding affinity in units of concentration. One may read the stoichiometry N as the number of molecules, sites or subunits per partner or assembly.

For experiment [1], the target named is GCN4 leucine zipper (Saccharomyces cerevisiae) (UniProt P03069). Conditions: cited from earlier work.
Experiment [2] deals with GCN4^WT (leucine zipper dimerization element of GCN4), C-terminal 6x His-tagged (yeast). Kind of experiment: native gel or EMSA; native (nondenaturing) PAGE beside SDS-PAGE of GCN4^WT and GCN4^3mut. (In EMSA bound probe runs differently from free probe, usually more slowly.)

Sequence of GCN4 leucine zipper (P03069 250-277): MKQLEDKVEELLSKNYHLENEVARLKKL
Sequence of GCN4^WT (leucine zipper dimerization element of GCN4), C-terminal 6x His-tagged (domain or fragment) (P03069 whole entry, the tested form may be a part): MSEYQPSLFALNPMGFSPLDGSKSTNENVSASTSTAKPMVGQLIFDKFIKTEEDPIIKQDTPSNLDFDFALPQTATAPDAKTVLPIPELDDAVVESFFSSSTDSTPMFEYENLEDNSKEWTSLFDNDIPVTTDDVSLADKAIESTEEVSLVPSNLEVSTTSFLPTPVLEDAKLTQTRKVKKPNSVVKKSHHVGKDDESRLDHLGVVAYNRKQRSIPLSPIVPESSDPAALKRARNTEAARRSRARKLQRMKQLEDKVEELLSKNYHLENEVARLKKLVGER

“GCN4 leucine zipper (from UniProt P03069)”: the equilibrium dissociation constant (Kd) in experiment [1] was 0.18 nM.

In experiment [2], “GCN4^WT (leucine zipper dimerization element of GCN4), C-terminal 6x His-tagged (domain or fragment)” displayed a stoichiometry N of 2.
